Data published in PMC11358013, “FANCD2–FANCI surveys DNA and recognizes double- to single-stranded junctions” (Nature, 2024).

Legend:
[1] = biological target: T1, ybbR-tagged full-length Gallus gallus FANCD2 labelled with Cy3 (Gallus gallus, UniProt Q68Y81 1-1439, modified Cy3 (LD555-CoA) conjugated to the carboxyl-terminal ybbR tag); assay: single-molecule two-colour confocal imaging on optically trapped DNA; 5 nM labelled D2–I loaded on λ DNA held between beads, imaged in the protein-free channel; 20 mM HEPES pH 7.5, 75 mM NaCl, 0.5 mg/ml BSA, 1 mM TCEP; 22 °C; conditions: both partners purified
T1 construct: FANCD2, Gallus gallus, codon-optimized full-length construct; also called FANCD2-Cy3; FANCD2-ybbR; source: Sf9, purified (Strep-Tactin, heparin, Superdex 200), labelled with SFP synthase and gel filtered

[2] = biological target: T2, Cy3 labelled monoubiquitinated Gallus gallus FANCD2_ybbR (Gallus gallus | , UniProt Q68Y81 1-1439; P0CG48 1-76, monoubiquitinated with His-tagged ubiquitin; Cy3 (LD555-CoA) conjugated to the ybbR tag | joined to a lysine of FANCD2); assay: single-molecule two-colour confocal imaging on optically trapped DNA; ubD2–I formed by incubating purified ubFANCD2 and FANCI with relaxed, optically trapped λ DNA (less than 1 pN), then moved to the protein-free channel; kymographs at 15 pN; conditions: both partners purified
T2 construct: FANCD2, Gallus gallus, full-length ybbR-tagged construct as in m3; ubiquitin, His-tagged, bought from Enzo Life Sciences; also called ubFANCD2; ubFANCD2_ybbR; copies: 1 + 1

B1: ybbR-tagged full-length Gallus gallus FANCI labelled with Cy5 (natural protein, UniProt B0I564 1-1338, looked up)
chain: MAQRILQLAAEGSPERLQEALQGLTEGELGDMVTRQALRGRETAALLKGIFKGSPCSQQSGVLRRLQVYKHCVSLVESGDLHVGKVSEIIGLLMLEARQLPGHALAELATLFVEVIKRGSLSNGKSLELFSTVLTALSNSKESLAYGKGELNGEEFKKQLINTLCSSKWDPQCVIHLANMFRDIPLSGEELQFVVEKVLRMFSKLDLQEIPPLVYQLLLLSAKGSKKTVLEGIISFFNQLDKRQKEEQRVPQSADLEVATVPLDQLRHVEGTVILHIVSAINLDQDIGEELIKHLKTEQQKDPGKALCPFSVSLLLSTAVKHRLQEQIFDFLKTSITRSCKDLQILQASKFLQDLCPQQYDVTAVILEVVKNSAFGWDHVTQGLVDLGFSLMESYEPKKSFGGKAAETNLGLSKMPAQQACKLGASILLETFKVHEPIRSDILEQVLNRVLTKAASPVSHFIDLLSNIVVSAPLVLQNSSSRVTETFDNLSFLPIDTVQGLLRAVQPLLKVSMSVRDSLILVLQKAIFSRQLDARKAAVAGFLLLLRNFKILGSLTSSQCSQAIGATQVQADVHACYNSAANEAFCLEILGSLRRCLSQQADVRLMLYEGFYDVLRRNSQLASSIMETLLSQIKQYYLPQQDLLPPLKLEGCIMAQGDQIFLQEPLAHLLCCIQHCLAWYKSTVHLCKGAEDEEEEEDVGFEQNFEEMLESVTRRMIKSELEDFELDKSADFSPSSGVGVKNNIYAIQVMGICEVLIEYNFKIGNFSKNKFEDVLGLFTCYNKLSEILKEKAGKNKSTLGNRIARSFLSMGFVSTLLTALFRDNAQSHEESLAVLRSSTEFMRYAVSVALQKVQQLEEMGQTDGPDGQNPEKMFQNLCKITRVLLWRYTSIPTAVEESGKKKGKSISLLCLEGLLRIFNTMQQLYAARIPQFLQALDITDGDAEEADINVTEKAAFQIRQFQRSLVNQLSSAEDDFNSKETQLLITILSTLSKLLDPGSQQFLQFLTWTVKICKENALEDLSCCKGLLTLLFSLHVLYKSPVSLLRELAQDIHACLGDIDQDVEIESRSHFAIVNVKTAAPTVCLLVLGQADKVLEEVDWLIKRLTILGSDTSEDSTQASNQTQALEKGVILQLGTLLTVFHELVQTALPAGSCVDSLLRSLSKTYAILTSLIKHYIQACRSTSNTVPGRLEKLVKLSGSHLTPQCYSFITYVQNIHSESLSFAEEKKKKKKEDETAVVSTVMAKVLRDTKPIPNLIFAIEQYEKFLIHLSKKSKVNLMQYMKLSTSRDFRINASMLDSVLQEQNTEDAENEPDNNQSGTAEQPDENQEPQKKRRRKK
modifications: modified Cy5 (LD655-CoA) conjugated to the carboxyl-terminal ybbR tag
notes: FANCI, Gallus gallus, full-length; C-terminal extension with a 3C protease site and 6xHis-tag before the ybbR tag; also called FANCI-Cy5; FANCI-ybbR; source: Sf9, purified (HisTrap, heparin, Superdex 200), labelled with SFP synthase and gel filtered
Question: Which results are given for B1?
Answer: binding result [1]: binds; binding result [2]: binds
